Test results reported in US20090181025A1 (published 2009).

T1: mouse TARM protein, isoform m1, expressed on B300.19 cells (mouse, UniProt B6A8R8 17-288)
T1 construct: In the co-immunoprecipitation the cells were solubilized in 1% digitonin; also called mTARM; mTARM-expressing cells
T1 sequence: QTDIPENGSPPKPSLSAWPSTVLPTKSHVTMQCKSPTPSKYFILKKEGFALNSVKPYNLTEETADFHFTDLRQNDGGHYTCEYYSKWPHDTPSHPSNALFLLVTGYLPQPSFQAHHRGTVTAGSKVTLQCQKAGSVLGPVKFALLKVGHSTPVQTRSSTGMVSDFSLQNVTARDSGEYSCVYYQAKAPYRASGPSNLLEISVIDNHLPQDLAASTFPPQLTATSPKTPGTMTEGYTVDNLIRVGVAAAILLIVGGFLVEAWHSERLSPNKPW


Tests used:
[1] = target: AP protein used as a negative control (human, UniProt P05187 23-511); experiment: FACS of AP protein on mTARM-L-expressing B300.19 cells, detected with anti-PLAP antibody
[2] = target: T1, mouse TARM protein, isoform m1, …; experiment: co-immunoprecipitation from B300.19 transfectants (1% digitonin lysate): anti-Flag IP, immunoblot with anti-mTARM #6
Description: B300.19 transfectants were solubilized in a cell lysis buffer containing 1% digitonin (1% digtonin/50 mM Tris-HCl (pH 7.5)/150 mM NaCl/5 mM NaF/1 mM orthovanadate/Complete™ (Roche)). Immunoprecipitation was carried out using an anti-Flag antibody, and immunoblot analysis was then carried out using anti-mTARM antibody #6.

[3] = target: T2, CD54 endogenous in bone marrow-derived mature dendritic cells (mouse, UniProt P13597 28-537); experiment: co-immunoprecipitation from mature dendritic cells (1% digitonin lysate): anti-CD54 IP, immunoblot with anti-FcRγ chain antibody
T2 construct: Control membrane protein in the co-immunoprecipitation; also called another cell membrane protein CD54
Description: Moreover, bone marrow-derived mature dendritic cells were solubilized in a cell lysis buffer containing 1% digitonin. Immunoprecipitation was carried out using rat IgG as a negative control, anti-mTARM antibody #21, an anti-CD54 antibody and an anti-FcRγ chain antibody, and immunoblot analysis was then carried out using an anti-FcRγ chain antibody.

Sequence of AP protein used as a negative control (P05187 23-511): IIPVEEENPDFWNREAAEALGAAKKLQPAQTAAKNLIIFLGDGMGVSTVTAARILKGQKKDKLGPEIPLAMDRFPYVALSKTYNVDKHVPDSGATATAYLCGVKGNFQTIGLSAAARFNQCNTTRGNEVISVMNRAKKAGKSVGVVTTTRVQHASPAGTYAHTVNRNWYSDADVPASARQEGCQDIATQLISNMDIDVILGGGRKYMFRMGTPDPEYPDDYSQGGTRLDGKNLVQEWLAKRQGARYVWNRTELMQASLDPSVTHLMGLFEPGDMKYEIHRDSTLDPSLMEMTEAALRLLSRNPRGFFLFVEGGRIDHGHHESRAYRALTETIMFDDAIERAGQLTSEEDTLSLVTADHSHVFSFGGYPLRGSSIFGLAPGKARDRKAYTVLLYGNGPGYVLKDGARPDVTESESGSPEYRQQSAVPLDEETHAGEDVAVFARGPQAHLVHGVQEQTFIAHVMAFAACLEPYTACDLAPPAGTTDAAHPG
T2 sequence (P13597 28-537 limits assumed): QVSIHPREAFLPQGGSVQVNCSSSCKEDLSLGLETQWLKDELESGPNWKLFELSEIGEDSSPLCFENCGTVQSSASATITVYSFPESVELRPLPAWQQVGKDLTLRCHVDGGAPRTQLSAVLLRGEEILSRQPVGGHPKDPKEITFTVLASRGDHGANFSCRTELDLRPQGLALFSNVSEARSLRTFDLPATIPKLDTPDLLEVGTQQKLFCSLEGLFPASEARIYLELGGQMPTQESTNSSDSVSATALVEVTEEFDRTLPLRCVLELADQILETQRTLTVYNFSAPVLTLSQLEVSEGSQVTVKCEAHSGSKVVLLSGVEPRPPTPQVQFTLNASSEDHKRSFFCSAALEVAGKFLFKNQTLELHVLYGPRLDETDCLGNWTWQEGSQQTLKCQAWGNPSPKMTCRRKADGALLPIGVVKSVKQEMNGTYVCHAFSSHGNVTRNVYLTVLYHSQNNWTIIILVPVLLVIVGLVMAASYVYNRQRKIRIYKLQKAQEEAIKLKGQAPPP

binding result [2] | Binder | other results
 | mouse TARM-L (TARM ligand) expressed on B300.19 cells (ligand, also called mTARM-L; mTARM-L candidate) LEISADAHVRGYVGEKIKLKCTFKSSSDVTDKLTIDWTYRPPSSSRTESIFHYQSFQYPTTAGTFRDRISWAGNVYKGDASISISNPTLKDNGTFSCAVKNPPDVYHNIPLTELTVTERGFGTMLSSVALLSILVFVPSAVVVILLLVRMGRKATGVQKRSRSGYKKSSIEVSDDTDQEDSNDCMTRLCVRCAECLDSDYEEEAY | binding result [1]: no binding (tested: 30 µg/ml (method of Example 5))
no binding | Flag tagged DAP10 expressed in B300.19 transfectants (other, UniProt Q9QUJ0 18-79, looked up, GenBank AF072846 is printed; The fragment limits are set only by the primers; not shown: N-terminal Flag tag from vector pMXII IRES-Puro) SQTSAGSCSGCGTLSLPLLAGLVAADAVMSLLIVGVVFVCMRPHGRPAQEDGRVYINMPGRG | 
 | FcRγ chain endogenous in bone marrow-derived mature dendritic cells (other, mouse, UniProt P20491 19-86, looked up, Native protein from lysate of mouse dendritic cells) LGEPQLCYILDAVLFLYGIVLTLLYCRLKIQVRKAAIASREKADAVYTGLNTRSQETYETLKHEKPPQ | binding result [3]: no binding
no binding | Flag tagged DAP12 expressed in B300.19 transfectants (other, UniProt O54885 22-114, looked up, GenBank NM-011662 is printed; The fragment limits are set only by the primers; not shown: N-terminal Flag tag from vector pMXII IRES-Puro) LSPVQAQSDTFPRCDCSSVSPGVLAGIVLGDLVLTLLIALAVYSLGRLVSRGQGTAEGTRKQHIAETESPYQELQGQRPEVYSDLNTQRQYYR | 
